Assay results reported in patent publication US20020177203A1 (published 2002).

Target: T1, mouse α2 subunit of prolyl 4-hydroxylase (mouse, UniProt Q60716 20-537)
T1 construct: Recombinant, made in Sf9 insect cells with a baculovirus; also called α(2) subunit of mouse prolyl 4-hydroxylase; α2 polypeptide
Experiment: coexpression in insect cells; nondenaturing PAGE and Western blot
Method: A recombinant baculovirus coding for the mouse α2 subunit was generated and used to infect S. frugiperda insect cells with or without the human PDI/β subunit, wherein the insect cells were infected at a multiplicity of 5. For production of an enzyme tetramer, the human α59 1 (see, Vuori, et al., supra) or mouse α2 viruses and the PDI/β viruses (id.) were used in a 1:1 or 2:1 ratio. The cells were harvested 72 hours after infection, homogenized in 0.01 M tris, pH 7.8/0.1 M NaCl/0.1 M glycine/10 μM dithiothreitol/0.1% Triton X-100, and centrifuged. The resulting supematants were analyzed by SDS/8% PAGE or nondenaturing 7.5% PAGE and assayed for enzyme activities.

T1 sequence (Q60716 20-537): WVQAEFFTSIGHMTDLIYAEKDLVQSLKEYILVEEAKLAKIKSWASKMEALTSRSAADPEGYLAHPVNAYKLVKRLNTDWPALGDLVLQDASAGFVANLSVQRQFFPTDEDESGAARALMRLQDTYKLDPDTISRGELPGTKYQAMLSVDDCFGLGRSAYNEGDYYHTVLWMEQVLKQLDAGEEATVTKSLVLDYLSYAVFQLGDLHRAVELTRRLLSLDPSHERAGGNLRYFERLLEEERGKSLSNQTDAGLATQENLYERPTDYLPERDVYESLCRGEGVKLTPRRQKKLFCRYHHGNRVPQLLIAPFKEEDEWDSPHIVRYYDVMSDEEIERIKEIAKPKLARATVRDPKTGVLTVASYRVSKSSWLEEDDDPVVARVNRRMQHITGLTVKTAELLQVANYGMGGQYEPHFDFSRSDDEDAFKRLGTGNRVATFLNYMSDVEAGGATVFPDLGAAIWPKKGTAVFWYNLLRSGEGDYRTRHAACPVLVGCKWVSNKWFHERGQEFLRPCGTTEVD

B1: human PDI/β subunit of prolyl 4-hydroxylase (protein disulfide-isomerase) (enzyme)
chain: not shown
notes: Made in Sf9 insect cells with a recombinant baculovirus (Vuori et al.); also called human β subunit
- binding result: binds
